This note sets out measurements from patent US6566088.

In data set [1] the target is T1, Biotin-Acp-DLDLEALAPYIPADDDFQL, human HIF-1a ODD peptide, wild type, not hydroxylated.
T1 chain: DLDLEALAPYIPADDDFQL

Data set [2] concerns the target T2, Biotinylated human HIF-1a ODD peptide with L562A, not hydroxylated.
T2 chain: DLDLEAAAPYIPADDDFQL

The target of data set [3] is T3, Biotinylated human HIF-1a ODD peptide with Pro567 to Gly, not hydroxylated.
T3 chain: DLDLEALAPYIGADDDFQL

For data set [4], the target named is T4, Biotinylated human HIF-1a ODD peptide with A563G, not hydroxylated.
T4 chain: DLDLEALGPYIPADDDFQL

Data set [5] concerns the target T5, Biotinylated human HIF-1a ODD peptide with Y565A, not hydroxylated.
T5 chain: DLDLEALAPAIPADDDFQL

B1: human HPH 1 H196A with carboxy-terminal V5-HIS tag (protein)
chain: MPLGHIMRLDLEKIALEYIVPCLHEVGFCYLDNFLGEVVGDCVLERVKQLHCTGALRDGQLAGPRAGVSKRHLRGDQITWIGGNEEGCEAISFLLSLIDRLVLYCGSRLGKYYVKERSKAMVACYPGNGTGYVRHVDNPNGDGRCITCIYYLNKNWDAKLHGGILRIFPEGKSFIADVEPIFDRLLFFWSDRRNPAEVQPSYATRYAMTVWYFDAEERAEAKKKFRNLTRKTESALTED
As for B1, the prolyl hydroxylase activity entry in data set [1] is “Each of these mutations eliminated the prolyl hydroxylase activity of the native HPH 1 enzyme”.

B2: human HIF prolyl hydroxylase 1 (HPH 1) with carboxy-terminal V5-HIS tag (protein)
chain: MPLGHIMRLDLEKIALEYIVPCLHEVGFCYLDNFLGEVVGDCVLERVKQLHCTGALRDGQLAGPRAGVSKRHLRGDQITWIGGNEEGCEAISFLLSLIDRLVLYCGSRLGKYYVKERSKAMVACYPGNGTGYVRHVDNPNGDGRCITCIYYLNKNWDAKLHGGILRIFPEGKSFIADVEPIFDRLLFFWSDRRNPHEVQPSYATRYAMTVWYFDAEERAEAKKKFRNLTRKTESALTED
Regarding B2, the “prolyl hydroxylase activity, [^35S]-pVHL pull-down assay” value in data set [1] is recorded as “Of the five candidate enzymes assayed, only one, HPH-1, was able to enhance pVHL association with the biotinylated peptide”. Further, the “prolyl hydroxylation of variant peptide substrates” value was “unable to modify peptides containing the L562A, A563G or Y565A mutations” in data set [2]; “a peptide containing a mutation of Pro^567 to glycine served as an equal, if not better, substrate for the human HPH enzymes” in data set [3]; “unable to modify peptides containing the L562A, A563G or Y565A mutations” in data set [4]; “unable to modify peptides containing the L562A, A563G or Y565A mutations” in data set [5].

B3: human HPH 1 H135A with carboxy-terminal V5-HIS tag (protein)
chain: MPLGHIMRLDLEKIALEYIVPCLHEVGFCYLDNFLGEVVGDCVLERVKQLHCTGALRDGQLAGPRAGVSKRHLRGDQITWIGGNEEGCEAISFLLSLIDRLVLYCGSRLGKYYVKERSKAMVACYPGNGTGYVRAVDNPNGDGRCITCIYYLNKNWDAKLHGGILRIFPEGKSFIADVEPIFDRLLFFWSDRRNPHEVQPSYATRYAMTVWYFDAEERAEAKKKFRNLTRKTESALTED
For B3, the prolyl hydroxylase activity entry in data set [1] is listed as “Each of these mutations eliminated the prolyl hydroxylase activity of the native HPH 1 enzyme”.

B4: human HPH 1 D137A with carboxy-terminal V5-HIS tag (protein)
chain: MPLGHIMRLDLEKIALEYIVPCLHEVGFCYLDNFLGEVVGDCVLERVKQLHCTGALRDGQLAGPRAGVSKRHLRGDQITWIGGNEEGCEAISFLLSLIDRLVLYCGSRLGKYYVKERSKAMVACYPGNGTGYVRHVANPNGDGRCITCIYYLNKNWDAKLHGGILRIFPEGKSFIADVEPIFDRLLFFWSDRRNPHEVQPSYATRYAMTVWYFDAEERAEAKKKFRNLTRKTESALTED
In the case of B4, the prolyl hydroxylase activity entry in data set [1] is recorded as “Each of these mutations eliminated the prolyl hydroxylase activity of the native HPH 1 enzyme”.

B5: recombinant human HPH 2 with amino-terminal MBP, purified from E. coli (protein)
chain: ANDSGGPGGPSPSERDRQYCELCGKMENLLRCSRCRSSFYCCKEHQRQDWKKHKLVCQGSEGALGHGVGPHQHSGPAPPAAVPPPRAGAREPRKAAARRDNASGDAAKGKVKAKPPADPAAAASPCRAAAGGQGSAVAAEAEPGKEEPPARSSLFQEKANLYPPSNTPGDALSPGGGLRPNGQTKPLPALKLALEYIVPCMNKHGICVVDDFLGKETGQQIGDEVRALHDTGKFTDGQLVSQKSDSSKDIRGDKITWIEGKEPGCETIGLLMSSMDDLIRHCNGKLGSYKINGRTKAMVACYPGNGTGYVRHVDNPNGDGRCVTCIYYLNKDWDAKVSGGILRIFPEGKAQFADIEPKFDRLLFFWSDRRNPHEVQPAYATRYAITVWYFDADERARAKVKYLTGEKGVRVELNKPSDSVGKDVF
As to B5, in data set [1], the prolyl hydroxylase activity entry was “Purified HPH 2 was able to hydroxylate the HIF-1a peptide substrate”. For the same protein, the “prolyl hydroxylation of variant peptide substrates” value in data set [2] is on record as “unable to modify peptides containing the L562A, A563G or Y565A mutations”; in data set [3], “a peptide containing a mutation of Pro^567 to glycine served as an equal, if not better, substrate for the human HPH enzymes”; in data set [4] it was “unable to modify peptides containing the L562A, A563G or Y565A mutations”; in data set [5], “unable to modify peptides containing the L562A, A563G or Y565A mutations”.

B6: human HPH 2 (splice variant) with carboxy-terminal V5-HIS tag, in vitro translated (protein)
chain: ANDSGGPGGPSPSERDRQYCELCGKMENLLRCSRCRSSFYCCKEHQRQDWKKHKLVCQGSEGALGHGVGPHQHSGPAPPAAVPPPRAGAREPRKAAARRDNASGDAAKGKVKAKPPADPAAAASPCRAAAGGQGSAVAAEAEPGKEEPPARSSLFQEKANLYPPSNTPGDALSPGGGLRPNGQTKPLPALKLALEYIVPCMNKHGICVVDDFLGKETGQQIGDEVRALHDTGKFTDGQLVSQKSDSSKDIRGDKITWIEGKEPGCETIGLLMSSMDDLIRHCNGKLGSYKINGRTKAMVACYPGNGTGYVRHVDNPNGDGRCVTCIYYLNKDWDAKVSGGILRIFPEGKAQFADIEPKFDRLLFFWSDRRNPHEVQPAYATRYAITVWYFDADERARAKVKYLTGEKGVRVELNKPSDSVGKDVF
B6: the “prolyl hydroxylase activity, [^35S]-pVHL pull-down assay” value in data set [1] is “both of these enzymes were observed to catalyze the hydroxylation of the key proline residue in the HIF-1a peptide substrate”.
